Laboratory results reported in US20020081614, “Functional genomics using zinc finger proteins” (Sangamo BioSciences, Inc., published 2002).

Tests used:
[1] = system: M6-111S ZFP-KRAB (pcK-M6-111S, printed pcK-M6-11S) (synthetic construct); assay: cell_activity; conditions: cotransfected luciferase reporter; about 40% repression of endogenous VEGF
[2] = system: M6-111S ZFP-VP16 (pcV-M6-111S) (synthetic construct); assay: cell_activity; conditions: 293 cells; target printed ATGGGGGTC in Table 1 but ATGGGGGTG in p236 and p241
[3] = system: M6-2009S ZFP-VP16 (pcV-M6-2009S, also written M6-2009A) (synthetic construct); assay: cell_activity; conditions: 293 cells; reporter pGLPVFH, table title endogenous VEGF; location -363
[4] = system: M6-1878S ZFP-VP16 (pcV-M6-1878S) (synthetic construct); assay: cell_activity; conditions: 293 cells; reporter pGLPVFH, table title endogenous VEGF; location -536
[5] = system: M6-120S ZFP-VP16 (pcV-M6-120S) (synthetic construct); assay: cell_activity; conditions: 293 cells; reporter pGLPVFH, table title endogenous VEGF; location -2243
[6] = target: T1, VF471A-VP16 (pcV-VF471A) (synthetic construct); assay: cell_activity; luciferase reporter in 293 cells, vs pcV-RAN
T1 chain: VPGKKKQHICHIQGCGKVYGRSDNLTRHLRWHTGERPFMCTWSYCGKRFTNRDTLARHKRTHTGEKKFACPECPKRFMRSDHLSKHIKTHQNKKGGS
Protocol: All plasmid DNA was prepared using Qiagen plasmid purification kits. The human embryonic kidney 293 cells were seeded into each well of a 6-well plate with a density to reach approximately 70% confluence the next day. Cells were co-transfected with 50 ng effector DNA (ZFP-expression plasmid), 900 ng reporter DNA and 100 ng pCMV-LacZ DNA using either Lipofectamine (GIBCO-BRL, MD) or GenePORTER (Gene Therapy Systems Inc, CA) transfection reagent. The co-expressed β-galactosidase activity was used a control to normalize the luciferase activity. Cell lysates were harvested 40 to 48 hours after transfection. Luciferase assays were performed using the Dual-Light Luciferase and β-galactosidase Reporter Assay System (Tropix, MA).
When the VP16 domain was replaced with a peptide, which has no transcription regulation activity, this zinc finger protein (pcV-VF471A-cat) lost its activity of trans-activating the luciferase gene. […] Therefore, the DNA binding domain (VF471A ZFP) combined with the regulation domain (VP16) in this example were able to turn on the gene at an appropriate target sites.

“ATGGGGGTG (double strand) [M6-111S site]” was tested, and the activity [1] was 80 % repression and the activity (fold activation) [2] was 4.1.

“GAAGGGGGC (double strand) [M6-2009S site]” gave an activity (fold activation) [3] of 4.5.

In the case of “GAGTGTGTG (double strand) [M6-1878S site]”, the activity (fold activation) [4] is reported as 4.2.

“GGGGGTGCC (double strand) [M6-120S site]” was tested, and the activity (fold activation) [5] was 13.8.

B1: reporter with three tandem M6-1892S sites (pGLP-VF471x3) (dsDNA)
DNA 1: GGGGTTGAG
DNA 2: CTCAACCCC
For B1, the activity [6] was 8 fold activation.
